# Experimental data: US20130157929A1, “GLUCAGON ANALOGUES” (ZEALAND PHARMA A/S, published 2013)
# Starred links: 1 amine or outer side, 2 acyl side, 3 side chain; linkers in the order of their positions; H or OH if unused. Non-standard residues stand in square brackets, D forms with d. Groups on a side chain read outwards from the residue. *: point of attachment. γGlu = O=C(O)[C@H](CCC(=O)[*:2])N[*:1]; Palmitoyl = CCCCCCCCCCCCCCCC(=O)*; Aib = CC(C)(N)C(=O)O
# What was measured:
# [1] = target: human glucagon receptor (glucagon-R) (human, UniProt P47871); experiment: cell-based or functional assay
# [2] = target: human glucagon-like peptide 1 receptor (GLP-1R) (human, UniProt P43220); experiment: cell-based or functional assay
Binder,"EC50 (nM) GluR, cAMP formation [1]","EC50 (nM) GLP-1R, cAMP formation [2]","EC50 (nM) GluR, cAMP formation, earlier determination [1]"
human GLP-1 (ligand) peptide: RSLQDTEEKSRSFSASQADPLSDPDQMNEDKRHSQGTFTSDYSKYLDSRRAQDFVQWLMNTKRNRNNIAKRHDEFERHAEGTFTSDVSSYLEGQAAKEFIAWLVKGRGRRDFPEEVAIVEELGRRHADGSFSDEMNTILDNLAARDFINWLIQTKITDRK,100000 nM,,
H-H[Aib]Q[Aib]TFTSDYSKYLDSK([γGlu-Palmitoyl])AAHDFVEWLLSA-NH2 (SMILES CCCCCCCCCCCCCCCC(=O)N[C@@H](CCC(=O)NCCCC[C@H](NC(=O)[C@H](CO)NC(=O)[C@H](CC(=O)O)NC(=O)[C@H](CC(C)C)NC(=O)[C@H](Cc1ccc(O)cc1)NC(=O)[C@H](CCCCN)NC(=O)[C@H](CO)NC(=O)[C@H](Cc1ccc(O)cc1)NC(=O)[C@H](CC(=O)O)NC(=O)[C@H](CO)NC(=O)[C@@H](NC(=O)[C@H](Cc1ccccc1)NC(=O)[C@@H](NC(=O)C(C)(C)NC(=O)[C@H](CCC(N)=O)NC(=O)C(C)(C)NC(=O)[C@@H](N)Cc1c[nH]cn1)[C@@H](C)O)[C@@H](C)O)C(=O)N[C@@H](C)C(=O)N[C@@H](C)C(=O)N[C@@H](Cc1c[nH]cn1)C(=O)N[C@@H](CC(=O)O)C(=O)N[C@@H](Cc1ccccc1)C(=O)N[C@H](C(=O)N[C@@H](CCC(=O)O)C(=O)N[C@@H](Cc1c[nH]c2ccccc12)C(=O)N[C@@H](CC(C)C)C(=O)N[C@@H](CC(C)C)C(=O)N[C@@H](CO)C(=O)N[C@@H](C)C(N)=O)C(C)C)C(=O)O) [Compound 11],5.1 nM,22 nM,
H-H[Aib]PGTFTSDYSKYLDSK([γGlu-Palmitoyl])AAHDFVEWLLSA-NH2 (SMILES CCCCCCCCCCCCCCCC(=O)N[C@@H](CCC(=O)NCCCC[C@H](NC(=O)[C@H](CO)NC(=O)[C@H](CC(=O)O)NC(=O)[C@H](CC(C)C)NC(=O)[C@H](Cc1ccc(O)cc1)NC(=O)[C@H](CCCCN)NC(=O)[C@H](CO)NC(=O)[C@H](Cc1ccc(O)cc1)NC(=O)[C@H](CC(=O)O)NC(=O)[C@H](CO)NC(=O)[C@@H](NC(=O)[C@H](Cc1ccccc1)NC(=O)[C@@H](NC(=O)CNC(=O)[C@@H]1CCCN1C(=O)C(C)(C)NC(=O)[C@@H](N)Cc1c[nH]cn1)[C@@H](C)O)[C@@H](C)O)C(=O)N[C@@H](C)C(=O)N[C@@H](C)C(=O)N[C@@H](Cc1c[nH]cn1)C(=O)N[C@@H](CC(=O)O)C(=O)N[C@@H](Cc1ccccc1)C(=O)N[C@H](C(=O)N[C@@H](CCC(=O)O)C(=O)N[C@@H](Cc1c[nH]c2ccccc12)C(=O)N[C@@H](CC(C)C)C(=O)N[C@@H](CC(C)C)C(=O)N[C@@H](CO)C(=O)N[C@@H](C)C(N)=O)C(C)C)C(=O)O) [Compound 4],0.48 nM,0.1 nM,
H-H[Aib]QATFTSDYSKYLDSK([γGlu-Palmitoyl])AAHDFVEWLLSA-NH2 (SMILES CCCCCCCCCCCCCCCC(=O)N[C@@H](CCC(=O)NCCCC[C@H](NC(=O)[C@H](CO)NC(=O)[C@H](CC(=O)O)NC(=O)[C@H](CC(C)C)NC(=O)[C@H](Cc1ccc(O)cc1)NC(=O)[C@H](CCCCN)NC(=O)[C@H](CO)NC(=O)[C@H](Cc1ccc(O)cc1)NC(=O)[C@H](CC(=O)O)NC(=O)[C@H](CO)NC(=O)[C@@H](NC(=O)[C@H](Cc1ccccc1)NC(=O)[C@@H](NC(=O)[C@H](C)NC(=O)[C@H](CCC(N)=O)NC(=O)C(C)(C)NC(=O)[C@@H](N)Cc1c[nH]cn1)[C@@H](C)O)[C@@H](C)O)C(=O)N[C@@H](C)C(=O)N[C@@H](C)C(=O)N[C@@H](Cc1c[nH]cn1)C(=O)N[C@@H](CC(=O)O)C(=O)N[C@@H](Cc1ccccc1)C(=O)N[C@H](C(=O)N[C@@H](CCC(=O)O)C(=O)N[C@@H](Cc1c[nH]c2ccccc12)C(=O)N[C@@H](CC(C)C)C(=O)N[C@@H](CC(C)C)C(=O)N[C@@H](CO)C(=O)N[C@@H](C)C(N)=O)C(C)C)C(=O)O) [Compound 8],3 nM,8.2 nM,23 nM
H-HSQ[Aib]TFTSDYSKYLDSK([γGlu-Palmitoyl])AAHDFVEWLLSA-NH2 (SMILES CCCCCCCCCCCCCCCC(=O)N[C@@H](CCC(=O)NCCCC[C@H](NC(=O)[C@H](CO)NC(=O)[C@H](CC(=O)O)NC(=O)[C@H](CC(C)C)NC(=O)[C@H](Cc1ccc(O)cc1)NC(=O)[C@H](CCCCN)NC(=O)[C@H](CO)NC(=O)[C@H](Cc1ccc(O)cc1)NC(=O)[C@H](CC(=O)O)NC(=O)[C@H](CO)NC(=O)[C@@H](NC(=O)[C@H](Cc1ccccc1)NC(=O)[C@@H](NC(=O)C(C)(C)NC(=O)[C@H](CCC(N)=O)NC(=O)[C@H](CO)NC(=O)[C@@H](N)Cc1c[nH]cn1)[C@@H](C)O)[C@@H](C)O)C(=O)N[C@@H](C)C(=O)N[C@@H](C)C(=O)N[C@@H](Cc1c[nH]cn1)C(=O)N[C@@H](CC(=O)O)C(=O)N[C@@H](Cc1ccccc1)C(=O)N[C@H](C(=O)N[C@@H](CCC(=O)O)C(=O)N[C@@H](Cc1c[nH]c2ccccc12)C(=O)N[C@@H](CC(C)C)C(=O)N[C@@H](CC(C)C)C(=O)N[C@@H](CO)C(=O)N[C@@H](C)C(N)=O)C(C)C)C(=O)O) [Compound 9],30 nM,16 nM,
H-H[Aib]EGTFTSDYSKYLDSK([γGlu-Palmitoyl])AAHDFVEWLLSA-NH2 (SMILES CCCCCCCCCCCCCCCC(=O)N[C@@H](CCC(=O)NCCCC[C@H](NC(=O)[C@H](CO)NC(=O)[C@H](CC(=O)O)NC(=O)[C@H](CC(C)C)NC(=O)[C@H](Cc1ccc(O)cc1)NC(=O)[C@H](CCCCN)NC(=O)[C@H](CO)NC(=O)[C@H](Cc1ccc(O)cc1)NC(=O)[C@H](CC(=O)O)NC(=O)[C@H](CO)NC(=O)[C@@H](NC(=O)[C@H](Cc1ccccc1)NC(=O)[C@@H](NC(=O)CNC(=O)[C@H](CCC(=O)O)NC(=O)C(C)(C)NC(=O)[C@@H](N)Cc1c[nH]cn1)[C@@H](C)O)[C@@H](C)O)C(=O)N[C@@H](C)C(=O)N[C@@H](C)C(=O)N[C@@H](Cc1c[nH]cn1)C(=O)N[C@@H](CC(=O)O)C(=O)N[C@@H](Cc1ccccc1)C(=O)N[C@H](C(=O)N[C@@H](CCC(=O)O)C(=O)N[C@@H](Cc1c[nH]c2ccccc12)C(=O)N[C@@H](CC(C)C)C(=O)N[C@@H](CC(C)C)C(=O)N[C@@H](CO)C(=O)N[C@@H](C)C(N)=O)C(C)C)C(=O)O) [Compound 7],26 nM,0.01 nM,
H-H[Aib]QFTFTSDYSKYLDSK([γGlu-Palmitoyl])AAHDFVEWLLSA-NH2 (SMILES CCCCCCCCCCCCCCCC(=O)N[C@@H](CCC(=O)NCCCC[C@H](NC(=O)[C@H](CO)NC(=O)[C@H](CC(=O)O)NC(=O)[C@H](CC(C)C)NC(=O)[C@H](Cc1ccc(O)cc1)NC(=O)[C@H](CCCCN)NC(=O)[C@H](CO)NC(=O)[C@H](Cc1ccc(O)cc1)NC(=O)[C@H](CC(=O)O)NC(=O)[C@H](CO)NC(=O)[C@@H](NC(=O)[C@H](Cc1ccccc1)NC(=O)[C@@H](NC(=O)[C@H](Cc1ccccc1)NC(=O)[C@H](CCC(N)=O)NC(=O)C(C)(C)NC(=O)[C@@H](N)Cc1c[nH]cn1)[C@@H](C)O)[C@@H](C)O)C(=O)N[C@@H](C)C(=O)N[C@@H](C)C(=O)N[C@@H](Cc1c[nH]cn1)C(=O)N[C@@H](CC(=O)O)C(=O)N[C@@H](Cc1ccccc1)C(=O)N[C@H](C(=O)N[C@@H](CCC(=O)O)C(=O)N[C@@H](Cc1c[nH]c2ccccc12)C(=O)N[C@@H](CC(C)C)C(=O)N[C@@H](CC(C)C)C(=O)N[C@@H](CO)C(=O)N[C@@H](C)C(N)=O)C(C)C)C(=O)O) [Compound 12],25 nM,12 nM,
H-H[Aib]HGTFTSDYSKYLDSK([γGlu-Palmitoyl])AAHEFVEWLLEA-NH2 (SMILES CCCCCCCCCCCCCCCC(=O)N[C@@H](CCC(=O)NCCCC[C@H](NC(=O)[C@H](CO)NC(=O)[C@H](CC(=O)O)NC(=O)[C@H](CC(C)C)NC(=O)[C@H](Cc1ccc(O)cc1)NC(=O)[C@H](CCCCN)NC(=O)[C@H](CO)NC(=O)[C@H](Cc1ccc(O)cc1)NC(=O)[C@H](CC(=O)O)NC(=O)[C@H](CO)NC(=O)[C@@H](NC(=O)[C@H](Cc1ccccc1)NC(=O)[C@@H](NC(=O)CNC(=O)[C@H](Cc1c[nH]cn1)NC(=O)C(C)(C)NC(=O)[C@@H](N)Cc1c[nH]cn1)[C@@H](C)O)[C@@H](C)O)C(=O)N[C@@H](C)C(=O)N[C@@H](C)C(=O)N[C@@H](Cc1c[nH]cn1)C(=O)N[C@@H](CCC(=O)O)C(=O)N[C@@H](Cc1ccccc1)C(=O)N[C@H](C(=O)N[C@@H](CCC(=O)O)C(=O)N[C@@H](Cc1c[nH]c2ccccc12)C(=O)N[C@@H](CC(C)C)C(=O)N[C@@H](CC(C)C)C(=O)N[C@@H](CCC(=O)O)C(=O)N[C@@H](C)C(N)=O)C(C)C)C(=O)O) [Compound 5],0.15 nM,0.16 nM,
H-H[Aib]QETFTSDYSKYLDSK([γGlu-Palmitoyl])AAHDFVEWLLSA-NH2 (SMILES CCCCCCCCCCCCCCCC(=O)N[C@@H](CCC(=O)NCCCC[C@H](NC(=O)[C@H](CO)NC(=O)[C@H](CC(=O)O)NC(=O)[C@H](CC(C)C)NC(=O)[C@H](Cc1ccc(O)cc1)NC(=O)[C@H](CCCCN)NC(=O)[C@H](CO)NC(=O)[C@H](Cc1ccc(O)cc1)NC(=O)[C@H](CC(=O)O)NC(=O)[C@H](CO)NC(=O)[C@@H](NC(=O)[C@H](Cc1ccccc1)NC(=O)[C@@H](NC(=O)[C@H](CCC(=O)O)NC(=O)[C@H](CCC(N)=O)NC(=O)C(C)(C)NC(=O)[C@@H](N)Cc1c[nH]cn1)[C@@H](C)O)[C@@H](C)O)C(=O)N[C@@H](C)C(=O)N[C@@H](C)C(=O)N[C@@H](Cc1c[nH]cn1)C(=O)N[C@@H](CC(=O)O)C(=O)N[C@@H](Cc1ccccc1)C(=O)N[C@H](C(=O)N[C@@H](CCC(=O)O)C(=O)N[C@@H](Cc1c[nH]c2ccccc12)C(=O)N[C@@H](CC(C)C)C(=O)N[C@@H](CC(C)C)C(=O)N[C@@H](CO)C(=O)N[C@@H](C)C(N)=O)C(C)C)C(=O)O) [Compound 10],15 nM,20 nM,
